Data published in paper PMC8632972.

Columns and labels:
CPE tagged with cYFP = CPE tagged with cYFP (UniProt P15087); experiment: BiFC quantified by flow cytometry; details: n = 5 independent experiments; parent: est. 100; read off a plot
NPY tagged with cYFP = NPY tagged with cYFP (UniProt P07808); experiment: BiFC quantified by flow cytometry; details: n = 5 independent experiments; parent: est. 100; read off a plot
SCG5 tagged with cYFP [1] = target: SCG5 tagged with cYFP (UniProt P27682); experiment: BiFC quantified by flow cytometry; details: n = 5 independent experiments; parent: est. 100; read off a plot
Chain of UniProt P27682 (P27682 25-210): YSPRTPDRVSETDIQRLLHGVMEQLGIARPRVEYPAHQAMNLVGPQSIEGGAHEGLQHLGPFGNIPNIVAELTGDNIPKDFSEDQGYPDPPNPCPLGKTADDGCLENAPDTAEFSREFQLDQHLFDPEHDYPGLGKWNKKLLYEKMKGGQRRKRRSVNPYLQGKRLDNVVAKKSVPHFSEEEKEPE

[2] = target: proinsulin tagged with C-terminal segment of YFP (cYFP) (UniProt P01322); experiment: BiFC quantified by flow cytometry; details: n = 5 independent experiments; parent: est. 100; read off a plot
Chain of UniProt P01322 (P01322 25-110): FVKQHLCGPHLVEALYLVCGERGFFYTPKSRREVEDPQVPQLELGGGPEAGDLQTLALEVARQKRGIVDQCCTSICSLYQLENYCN

SCG5 tagged with cYFP [3] = target: SCG5 tagged with cYFP (UniProt P27682); experiment: PLA; details: n = 4 independent experiments, n = 8 independent images quantified; parent: est. 100; read off a plot
SEC24A tagged with Myc = experiment: PLA; details: n = 3 independent experiments, n = 8 independent images quantified; parent: est. 4.5; read off a plot

Chain of UniProt P15087 (P15087 28-476): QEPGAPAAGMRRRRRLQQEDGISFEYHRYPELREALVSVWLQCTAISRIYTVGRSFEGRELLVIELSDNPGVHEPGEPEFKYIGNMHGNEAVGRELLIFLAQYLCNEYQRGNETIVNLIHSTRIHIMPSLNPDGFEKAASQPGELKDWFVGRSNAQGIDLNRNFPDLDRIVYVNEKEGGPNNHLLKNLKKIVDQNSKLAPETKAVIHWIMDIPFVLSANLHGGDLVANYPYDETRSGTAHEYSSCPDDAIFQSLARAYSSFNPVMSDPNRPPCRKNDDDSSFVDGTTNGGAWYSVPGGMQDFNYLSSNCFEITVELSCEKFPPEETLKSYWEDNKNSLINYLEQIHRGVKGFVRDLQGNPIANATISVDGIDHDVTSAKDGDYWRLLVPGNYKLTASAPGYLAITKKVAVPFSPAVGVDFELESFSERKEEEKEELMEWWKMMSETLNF

Row | Substance | percent of parent (CPE tagged with cYFP) [%] | percent of parent (NPY tagged with cYFP) [%] | percent of parent (SCG5 tagged with cYFP [1]) [%] | percent of parent [2] [%] | response (puncta (>1µm2) per cell) (SCG5 tagged with cYFP [3]) | response (puncta (>1µm2) per cell) (SEC24A tagged with Myc)
1 | WFS1 tagged with N-terminal segment of YFP (nYFP) G695V | 41 | 33 | 56 | 42 | – | –
2 | HA-tagged WFS1 P724L | – | – | – | – | 55 | –
3 | WFS1 tagged with N-terminal segment of YFP (nYFP) E809K | 46 | 41 | 71 | 70 | – | –
4 | WFS1 tagged with N-terminal segment of YFP (nYFP) E830A | 2 | 3 | 8 | 23 | – | –
5 | HA-tagged WFS1 E169K | – | – | – | – | – | 0.13
6 | HA-tagged WFS1 E158K | – | – | – | – | – | 0.13

The remaining lines, values ahead:

Row | percent of parent (CPE tagged with cYFP) [%] | percent of parent (NPY tagged with cYFP) [%] | percent of parent (SCG5 tagged with cYFP [1]) [%] | percent of parent [2] [%] | response (puncta (>1µm2) per cell) (SCG5 tagged with cYFP [3]) | response (puncta (>1µm2) per cell) (SEC24A tagged with Myc) | Substance
7 | – | – | – | – | 56 | – | HA-tagged WFS1 E809K
8 | 71 | 49 | 54 | 61 | – | – | WFS1 tagged with N-terminal segment of YFP (nYFP) P724L
9 | – | – | – | – | 35 | – | HA-tagged WFS1 G695V
10 | – | – | – | – | 7 | – | HA-tagged WFS1 E830A
